This is an account of results in patent publication US20130130922, “ANALYSIS OF METHYLATION SITES” (Centre for Addiction and Mental Health, published 2013).

The series deals with M.SssI Q142A/N370A (UniProt P15840 SEQ:1-386, Q142A,N370A). The series can be described thus: Ado-6-amine 80 uM, no Mg, 37 C; modified deoxycytidine detected by HPLC/ESI-MS. Particulars: tags: His6.
Chain of M.SssI Q142A/N370A (P15840 whole entry Q142A/N370A): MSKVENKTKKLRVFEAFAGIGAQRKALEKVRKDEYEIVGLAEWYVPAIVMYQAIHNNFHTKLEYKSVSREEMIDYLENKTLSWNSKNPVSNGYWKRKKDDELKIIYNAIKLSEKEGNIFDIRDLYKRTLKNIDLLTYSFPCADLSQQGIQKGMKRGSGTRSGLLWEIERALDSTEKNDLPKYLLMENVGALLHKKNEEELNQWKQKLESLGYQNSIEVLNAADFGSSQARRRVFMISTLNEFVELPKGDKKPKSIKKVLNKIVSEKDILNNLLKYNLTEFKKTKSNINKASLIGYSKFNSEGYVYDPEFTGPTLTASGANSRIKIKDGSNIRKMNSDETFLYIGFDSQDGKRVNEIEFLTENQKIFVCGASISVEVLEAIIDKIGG

B1: 24-mer duplex oligonucleotide (dsDNA)
DNA 1: GCATTACGCGCCAGGTCGTTTCGT
DNA 2: TACGAAACGACCTGGCGCGTAATG
Take B1: the binding result was “binds”.
